According to PMC10855199:

Biological target: Aβ42 oligomers
Test: SPR; Biacore T200; AL fibrils (1000 RU) or Aβ42 oligomers (500 RU) amine-coupled on CM5; two-fold serial dilutions of whole antibody injected at 30 μL/min; 25 °C; 10 mM phosphate, 137 mM NaCl, 2.7 mM KCl, 0.05% Tween-20, pH 7.5; global fit to a Langmuir 1:1 model

B1: wild-type crenezumab (antibody, V domains shown)
VH: EVQLVESGGGLVQPGGSLRLSCAASGFTFSSYGMSWVRQAPGKGLELVASINSNGGSTYYPDSVKGRFTISRDNAKNSLYLQMNSLRAEDTAVYYCASGDYWGQGTTVTVSS
VL: DIVMTQSPLSLPVTPGEPASISCRSSQSLVYSNGDTYLHWYLQKPGQSPQLLIYKVSNRFSGVPDRFSGSGSGTDFTLKISRVEAEDVGVYYCSQSTHVPWTFGQGTKVEIK
  Kd: 1.53 nM
  koff: 0.00116 s⁻¹
  kon: 761000 M⁻¹ s⁻¹
